Measurements as given in US10184137B2, “Method of producing isoprene monomer” (AJINOMOTO CO., INC., priority 2014, dated 2019).
Several values for one entry are separate records, joined by “and”; a condition that tells them apart may be missing. Identical values can stand only once.

Key:
[1] = molecular target: Nitrosopumilus maritimus mevalonate kinase (nmr), wild type, SEQ ID NO:9, N-terminal His-tag (Nitrosopumilus maritimus, UniProt A9A427); experiment: Examination of product inhibition on nmr-derived mevalonate kinase; type: biochemical; conditions: 1 mM mevalonate as substrate, 50 mM ATP
[2] = substrate: Nc1ncnc2c1ncn2[C@@H]1O[C@H](COP(=O)(O)OP(=O)(O)OP(=O)(O)O)[C@@H](O)[C@H]1O; experiment: purified protein, by the assay type; conditions: other: mcl, 5 mM potassium mevalonate, pH 7.6, 30° C., Lineweaver-Burk plot
Experimental: Each obtained plasmid was used for transformation of E. coli BL21(DE3). […] When OD600 reached approximately 0.5, 0.1 mM IPTG (for cva, mma, nmr, and sce) or 1 mM (for mcl and mpd) of IPTG was added, and then the mixture was kept at 20° C. overnight to induce the target protein. […] After centrifugation (28,000×g, 30 min), the supernatant was adsorbed onto His-Trap HP (GE Healthcare) to elute the target protein by linear concentration gradient of Imidazol (final concentration 0.5 M). Obtained protein was dialyzed by using an external solution composed of 20 mM Tris-HCl (pH 8.0) containing 1 mM DTT and 50 mM NaCl. Dialyzed protein was designated as purified enzyme. Protein quantity was measured with Bio-RAD protein assay kit and BSA standard condition.
Decrease in absorbance at 340 nm at 30° C. was measured to determine the enzyme activity. JASCO Corporation's spectrophotometer (V-650) was used in this study. […] Km value was calculated by Lineweaver-Burk plot.

mevalonate kinase [3] = experiment: Expression analysis and activity confirmation of His-tagged mevalonate kinases from pET-21a(+) and pET-28b(+); type: biochemical; conditions: His-spinTrap eluate after dialysis, 10 μl enzyme solution
Experimental: Each obtained plasmid was used for transformation of E. coli BL21(DE3). […] When OD600 reached approximately 0.5, IPTG was added to the solution to final concentration of 1 mM. It was then cultured overnight at 20° C. Harvested cells were suspended in the buffer solution consisting of 50 mM sodium phosphate, 0.3 M NaCl and 20 mM Imidazol. Then the cells were disrupted with an ultrasonic disruptor (TOMY: UD-201, output level=3.5). After centrifugation (20,000×g, 20 min), disrupted cells were adsorbed to His-spinTrap (GE Healthcare). After washing with the same buffer solution, protein was eluted with the buffer solution consisting of 50 mM sodium phosphate, 0.3 M NaCl and 0.5 M imidazole (pH7.5). Eluate was dialyzed overnight at 4° C. with the external solution composed of 20 mM Tris-HCl (pH7.5) and 50 mM NaCl. Then, enzyme activity of each eluate in the internal dialysis solution was measured.
Activity of the internal dialysate (about 0.2 ml each) was measured with the 10 μl of enzyme solution (Table 8). Enzyme expression level was compared on activity basis between pET-21a(+) and pET-28b(+). […] It is inferred that expression level is higher in pET-28b(+). Therefore, purified enzyme expressed in pET-28b(+) was used in the further examinations.
Values were presented by decrease in absorbance per unit time per 10 μl in the enzyme reaction measurement system (dABS/min/10 μl).
(§1) Decrease in absorbance at 340 nm at 30° C. was measured to determine the enzyme activity. JASCO Corporation's spectrophotometer (V-650) was used in this study. Millimolar extinction coefficient of NADH used in this study was 6.22 mM^−1 cm^−1. […] Km value was calculated by Lineweaver-Burk plot.

mevalonate kinase [4] = experiment: Measurement of activity and Km value of purified mevalonate kinase (PK/LDH coupled, 340 nm); type: biochemical
Experimental: (§2) Each obtained plasmid was used for transformation of E. coli BL21(DE3). […] When OD600 reached approximately 0.5, 0.1 mM IPTG (for cva, mma, nmr, and sce) or 1 mM (for mcl and mpd) of IPTG was added, and then the mixture was kept at 20° C. overnight to induce the target protein. Harvested cells were suspended in buffer solution A (50 mM sodium phosphate, 0.3 M NaCl and 20 mM Imidazol), and then the cells were disrupted with an ultrasonic disruptor (TOMY: UD-201). […] After centrifugation (28,000×g, 30 min), the supernatant was adsorbed onto His-Trap HP (GE Healthcare) to elute the target protein by linear concentration gradient of Imidazol (final concentration 0.5 M). Obtained protein was dialyzed by using an external solution composed of 20 mM Tris-HCl (pH 8.0) containing 1 mM DTT and 50 mM NaCl. Dialyzed protein was designated as purified enzyme. Protein quantity was measured with Bio-RAD protein assay kit and BSA standard condition.
as §1
(§3) Measured activity of each enzyme (JABS/min) was presented on Table 9 for the calculation of apparent Km value (Km app.) of each enzyme. Table 10 presents Km app., Vmax, molecular weight of the enzyme protein, protein concentration in the enzyme solution and calculated kcat.
Activity was indicated by dABS/min when 10 μl of each enzyme was added to 1 ml of reaction solution.

mevalonate kinase [5] = experiment: Inhibition of each mevalonate kinase by DMAPP, GPP, FPP or DPM; type: biochemical
Experimental: Since GPP and FPP solutions contain methanol, methanol which was needed to keep the same methanol level at the addition to the reaction system was added to the reaction solution, which was designated as control.
Respective effect of the added 5 mM DMAPP, 0.1 mM GPP, and 0.1 mM FPP on the activity of each enzyme was measured. […] Contrarily, mcl-derived enzyme was activated by 5 mM DMAPP and its activity increased by 20% from that of the control.
Activity when 10 μl of each enzyme was added to 1 ml of the reaction system was represented by dABS/min
Effect of 1 mM diphosphomevalonate (DPM) on each enzyme was also studied.

mevalonate kinase [6] = experiment: Examination of product inhibition on each mevalonate kinase (absorbance at 386 nm, PMK addition); type: biochemical; conditions: 1 mM mevalonate as substrate; in words
Experimental: When decrease in absorbance stopped, purified PMK was added to measure further decrease in absorbance at 386 nm.
FIG. 18 presents the SDS-PAGE profile of the purified PMK. […] Then, absorbance decreased further and finally absorbance at 386 nm decreased to 0.3 in all reaction systems. Therefore, it is inferred that mevalonate is converted into diphosphomevalonate via phosphomevalonate by adding PMK to each MVK.

[7] = tested on: mcl-derived mevalonate kinase; experiment: Effect of IPP and low-concentration DMAPP on mcl-derived mevalonate kinase activity
[8] = substrate: Nc1ncnc2c1ncn2[C@@H]1O[C@H](COP(=O)(O)OP(=O)(O)OP(=O)(O)O)[C@@H](O)[C@H]1O; experiment: purified protein, by the assay type; type: biochemical, Nitrosopumilus maritimus; conditions: other: nmr, 5 mM potassium mevalonate, pH 7.6, 30° C., Lineweaver-Burk plot
Experimental: as §2
(§4) Decrease in absorbance at 340 nm at 30° C. was measured to determine the enzyme activity. […] Km value was calculated by Lineweaver-Burk plot.
as §3

[9] = substrate: Nc1ncnc2c1ncn2[C@@H]1O[C@H](COP(=O)(O)OP(=O)(O)OP(=O)(O)O)[C@@H](O)[C@H]1O; experiment: purified protein, by the assay type; type: biochemical, Methanosarcina mazei; conditions: other: mma, 5 mM potassium mevalonate, pH 7.6, 30° C., Lineweaver-Burk plot
Experimental: as §2, §4, §3

[10] = substrate: Nc1ncnc2c1ncn2[C@@H]1O[C@H](COP(=O)(O)OP(=O)(O)OP(=O)(O)O)[C@@H](O)[C@H]1O; experiment: purified protein, by the assay type; type: biochemical, Corynebacterium variabile; conditions: other: cva, 5 mM potassium mevalonate, pH 7.6, 30° C., Lineweaver-Burk plot
Experimental: as §2, §4, §3

[11] = substrate: Nc1ncnc2c1ncn2[C@@H]1O[C@H](COP(=O)(O)OP(=O)(O)OP(=O)(O)O)[C@@H](O)[C@H]1O; experiment: purified protein, by the assay type; type: biochemical, Saccharomyces cerevisiae; conditions: other: sce, 5 mM potassium mevalonate, pH 7.6, 30° C., Lineweaver-Burk plot
Experimental: as §2, §4, §3

## C[C@@](O)(CCOP(=O)(O)O)CC(=O)O [phosphomevalonate, mevalonate-5-phosphate]
[1]
  Product inhibition: may cause product inhibition

B1: Methanosaeta concilii mevalonate kinase (mcl), wild type, SEQ ID NO:6, N-terminal His-tag (Methanothrix soehngenii GP6) (protein)
chain: MTMASAPGKIILFGEHAVVSGTAALGGAIDLRARAIVQSLPGRILIETDDLSLRGFSLDLSTGEIRSASAAYATRYVSAVLKELGARDVRVMIESDIPPAAGLGSSASIVVATVAALNGHLGLELSQKEIAALSYRIEKEVQKGRGSPMDTALATYGGYQRIADDNQRLDLPPLEMVVGYTRLPHDTFSLVEKVQLLKERYPDLVGPIFQAIGAISERAAPLIREQRLKDLGELMDINHGLLEALGVGSRELSELVYAARNTGGALGAKLTGAGGGGCMIALPGMAGKDALLVALRQARGMAFAAMMGCEGVRLEVA
[2]
  Km: 74 ± 1.4 µM

B2: mcl: mevalonate kinase derived from Methanosaeta concilii (SEQ ID NO:6), His-tagged purified enzyme (protein, listed as Methanosaeta concilii)
chain: MTMASAPGKIILFGEHAVVSGTAALGGAIDLRARAIVQSLPGRILIETDDLSLRGFSLDLSTGEIRSASAAYATRYVSAVLKELGARDVRVMIESDIPPAAGLGSSASIVVATVAALNGHLGLELSQKEIAALSYRIEKEVQKGRGSPMDTALATYGGYQRIADDNQRLDLPPLEMVVGYTRLPHDTFSLVEKVQLLKERYPDLVGPIFQAIGAISERAAPLIREQRLKDLGELMDINHGLLEALGVGSRELSELVYAARNTGGALGAKLTGAGGGGCMIALPGMAGKDALLVALRQARGMAFAAMMGCEGVRLEVA
modifications: His-tag
Mevalonate kinase [3]
  enzyme activity, pET21 system (C terminal Tag): 0.003 dABS/min/10 μl
  enzyme activity, pET28 system (N terminal Tag): 0.023 dABS/min/10 μl
Mevalonate kinase [4]; ATP 0.04 mM, potassium mevalonate 5 mM, 10 μl enzyme in 1 ml, replicate values
  dABS/min at ATP 0.04 mM: 0.06058 dABS/min and 0.06029 dABS/min and 0.05985 dABS/min
Mevalonate kinase [4]; ATP 0.2 mM, potassium mevalonate 5 mM, 10 μl enzyme in 1 ml, replicate values
  dABS/min at ATP 0.2 mM: 0.1223 dABS/min and 0.1222 dABS/min (2×)
Mevalonate kinase [4]; ATP 1 mM, potassium mevalonate 5 mM, 10 μl enzyme in 1 ml, replicate values
  dABS/min at ATP 1 mM: 0.1584 dABS/min (2×) and 0.1585 dABS/min
Mevalonate kinase [4]; in words
  affinity to mevalonate and ATP compared with the other enzymes: higher affinity to mevalonate and ATP than the other enzymes
Mevalonate kinase [4]; potassium mevalonate 0.002 mM, ATP 5 mM, 10 μl enzyme in 1 ml, replicate values
  dABS/min at mev 0.002 mM: 0.02277 dABS/min and 0.02381 dABS/min and 0.02265 dABS/min
Mevalonate kinase [4]; potassium mevalonate 0.01 mM, ATP 5 mM, 10 μl enzyme in 1 ml, replicate values
  dABS/min at mev 0.01 mM: 0.08427 dABS/min and 0.0843 dABS/min and 0.08431 dABS/min
Mevalonate kinase [4]; potassium mevalonate 0.04 mM, ATP 5 mM, 10 μl enzyme in 1 ml, replicate values
  dABS/min at mev 0.04 mM: 0.1675 dABS/min and 0.1677 dABS/min and 0.1671 dABS/min
Mevalonate kinase [4]; potassium mevalonate 0.2 mM, ATP 5 mM, 10 μl enzyme in 1 ml, replicate values
  dABS/min at mev 0.2 mM: 0.2123 dABS/min (2×) and 0.2125 dABS/min
Mevalonate kinase [5]; Table 11 control without terpenyl diphosphate (methanol added)
  enzyme activity, Control: 0.1482 dABS/min
Mevalonate kinase [5]; Table 12 control without DPM
  enzyme activity, Control: 0.1373 dABS/min
Mevalonate kinase [5]; in words
  effect of 5 mM DMAPP on enzyme activity: activated
Mevalonate kinase [6]
  course of decrease in absorbance at 386 nm until PMK addition: almost linear decrease in absorbance
[7]; 70% methanol control for IPP
  enzyme activity, Control (MeOH): 0.1594 dABS/min
[7]; control for DMAPP
  enzyme activity, Control (H2O): 0.154 dABS/min

B3: Nitrosopumilus maritimus mevalonate kinase (nmr), wild type, SEQ ID NO:9, N-terminal His-tag (Nitrosopumilus maritimus SCM1) (protein)
chain: MKSKASAPGKVILFGEHFVVYGVKAILCAINKRIAVTAEKIDERKISIKSNIGHLELEPNKPISEINSPLKPFYYLANKIIQDKNFGIKIDVESEIPLGVGLGSSSACCVAGAAAISNLFENNSKEEILKLAIEAEKTIFQNTSGADCTVCTFGGLMEYDKENGFSKIESEPNFHLVIANSNVEHSTESVVAGVRKFKKNNEAEFSKLCKDESHLIENVLELLKENNIRELGERVIKNQEYLERIGISNAKLREMIQTGQNSSFGAKITGAGGGGCIFALTDESNLENTIKEFKEKNHECFSVKIDFKGLDTF
[8]
  Km: 1006 ± 20^ μM

B4: Methanosarcina mazei mevalonate kinase (mma), wild type, SEQ ID NO:12, N-terminal His-tag (Methanosarcina mazei Go1) (protein)
chain: MVSCSAPGKIYLFGEHAVVYGETAIACAVELRTRVRAELNDSITIQSQIGRTGLDFEKHPYVSAVIEKMRKSIPINGVFLTVDSDIPVGSGLGSSAAVTIASIGALNELFGFGLSLQEIAKLGHEIEIKVQGAASPTDTYVSTFGGVVTIPERRKLKTPDCGIVIGDTGVFSSTKELVANVRQLRESYPDLIEPLMTSIGKISRIGEQLVLSGDYASIGRLMNVNQGLLDALGVNILELSQLIYSARAAGAFGAKITGAGGGGCMVALTAPEKCNQVAEAVAGAGGKVTITKPTEQGLKVD
[9]
  Km: 687 ± 9.3 µM

B5: Corynebacterium variabile mevalonate kinase (cva), wild type, SEQ ID NO:3, N-terminal His-tag (Corynebacterium variabile) (protein)
chain: MAPHVGHGQTVAKIILFGEHSVVYGHPAIAMPLRTLRMIARVEPTDGPGTLSGLGWTGPITEAPARFSSIVKAAEVASDFAGHPGAGLNISTESEFPPERGLGSSAAAAGAVIRAVLDAFDTPATPRELFDLTQEAETVAHGRPSGLDAVATSAEAPVHFQAGQATDLEFSPDAWIVIADSGVEGSTRETVGHVRGRFEAEPDIITALLNRLGEITDEVVVDLRTGDVQGMGARMTEAHGILGQLGVSNTQLDALVTASLGAGALGAKLTGGGRGGCVIALAATEEDAENVEKALVDAGARGTWVHAPATGQMAGEVMQ
[10]
  Km: 1347 ± 29^ μM

B6: Saccharomyces cerevisiae mevalonate kinase (sce, ERG12), wild type, NP_013935.1, N-terminal His-tag (Saccharomyces cerevisiae S288C) (protein)
chain: MSLPFLTSAPGKVIIFGEHSAVYNKPAVAASVSALRTYLLISESSAPDTIELDFPDISFNHKWSINDFNAITEDQVNSQKLAKAQQATDGLSQELVSLLDPLLAQLSESFHYHAAFCFLYMFVCLCPHAKNIKFSLKSTLPIGAGLGSSASISVSLALAMAYLGGLIGSNDLEKLSENDKHIVNQWAFIGEKCIHGTPSGIDNAVATYGNALLFEKDSHNGTINTNNFKFLDDFPAIPMILTYTRIPRSTKDLVARVRVLVTEKFPEVMKPILDAMGECALQGLEIMTKLSKCKGTDDEAVETNNELYEQLLELIRINHGLLVSIGVSHPGLELIKNLSDDLRIGSTKLTGAGGGGCSLTLLRRDITQEQIDSFKKKLQDDFSYETFETDLGGTGCCLLSAKNLNKDLKIKSLVFQLFENKTTTKQQIDDLLLPGNTNLPWTS
notes: His-tag (N); made in house; host or cells: E. coli BL21(DE3)
[11]
  Km: 464 ± 7.6 µM
